This note sets out measurements from US20080305099.

Series [1] deals with ACTH (adrenocorticotropic hormone).
The target in another series is Aβ42 (UniProt P05067).
For another series, the target named is synthetic Aβ40 (UniProt P05067).

For “recombinant GCP-II protein purified from insect cells (Sf21)”, in series [1], the “MALDI-TOF molecular weight after reaction with GCP-II at 37° C. for 15 hours” value (“MALDI-TOF molecular weight” below) is reported as “characteristically not degraded by GCP-II”. The “Western blot (anti-Aβ antibody 6E10) of Aβ matured for 7 days after 20 hours with rGCP-II” value with Aβ (length not stated) is given as “Aβ in oligomer form (multimer) was reduced faster than Aβ monomer”. In addition, in the series with Aβ42, the “endogenous Aβ42 remaining (ELISA) in the medium of swAPP stable HEK293 colony #2 with 0, 0.5, 2.5 and 10 of rGCP-II” value is recorded as “the level of endogenous Aβ42 was decreased”. Moreover, the “MALDI-TOF molecular weight” value in the series on amylin is “amylin showed two peaks at 1500 and 2000 after being reacted with GCP-II”. Also, in the series on insulin β-chain, the “MALDI-TOF molecular weight” value is listed as “characteristically not degraded by GCP-II”. Besides, in the series with synthetic Aβ40, the “MALDI-TOF of Aβ40 reacted with GCP-II protein at more than 25 ng/µL” value is reported as “only one peak was observed at 2,167 which corresponds to Aβ18”; the “MALDI-TOF of Aβ40 reacted with GCP-II protein for 20 hours” value is “two new peaks were observed at 3915 and 2662 in Aβ reacted with 0.5 ng/µM of GCP-II”; the “MALDI-TOF of Aβ reacted with GCP-II inactivated by heating (boiled rGCP-II)” value is “Aβ was not degraded by the inactivated GCP-II”.
